The record followed here is US12497460B2, “Anti-MSR1 antibodies and methods of use thereof” (REGENERON PHARMACEUTICALS, INC., priority 2018, dated 2025).

Experiment [1] concerns the target T1, His9-hMSR1 (human MSR1 extracellular domain) (Homo sapiens, UniProt P21757).
T1 construct: human MSR1 extracellular domain expressed with a N-terminal nonahistidine tag; His9 (nonahistidine) (N); purchased R&D Systems 2708-MS
T1 sequence (P21757 77-451 limits assumed): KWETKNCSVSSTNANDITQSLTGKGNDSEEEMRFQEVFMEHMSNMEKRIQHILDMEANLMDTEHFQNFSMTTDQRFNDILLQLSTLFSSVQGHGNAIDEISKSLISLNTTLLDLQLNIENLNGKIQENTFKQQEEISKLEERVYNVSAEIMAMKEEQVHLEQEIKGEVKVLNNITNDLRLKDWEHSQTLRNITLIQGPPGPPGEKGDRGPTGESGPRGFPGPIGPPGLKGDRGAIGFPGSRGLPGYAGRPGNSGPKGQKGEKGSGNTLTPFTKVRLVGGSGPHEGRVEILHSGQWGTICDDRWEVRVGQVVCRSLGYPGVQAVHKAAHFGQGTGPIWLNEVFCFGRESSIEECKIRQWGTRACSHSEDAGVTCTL
Nature of the experiment: OCTET bio-layer interferometry binding kinetics of anti-MSR1 mAbs. Conditions: 25° C., analyte His9-hMSR1, NB = no binding observed. How it is done: (§1) Binding affinities and kinetic constants of human anti-MSR1 antibodies for different MSR1 reagents were determined using a real time, label-free bio-layer interferometry assay on an OCTET® HTX biosensor platform (Pall FortéBio Corp., Menlo Park, CA). The experiment was performed at 25° C. in 10 mM HEPES, 150 mM NaCl, 3 mM EDTA, 0.05% v/v Surfactant Tween-20, and 1 mg/mL BSA, pH7.4 (HBS-EBT) buffer with the plate shaking at the speed of 1000 rpm. Binding studies were performed on human MSR1 extracellular domain expressed with a N-terminal nonahistidine tag (His9-hMSR1; R&D Systems, Cat #2708-MS), monkey MSR1 extracellular domain expressed with a N-terminal myc-myc-hexahistidine tag (HMM-mfMSR1; SEQ ID NO: 418), and mouse MSR1 extracellular domain expressed with a N-terminal nonahistidine tag (His9-mMSR1; R&D Systems, Cat #1797-MS). The anti-MSR1 monoclonal antibodies were captured by dipping either anti-human Fc (AHC) or anti-mouse Fc (AMC) Octet biosensors in wells containing 5 μg/mL or 10 μg/mL of anti-MSR1 monoclonal antibody for 45-90 seconds. The AHC captured anti-MSR1 monoclonal antibodies were then dipped in wells containing 50 nM of His9-mMSR1, while the AMC captured anti-MSR1 monoclonal antibodies were dipped in wells containing different concentrations of His9-hMSR1 or HMM-mfMSR1 (100 nM, 25 nM) or 100 nM His9-mMSR1. The binding of different MSR1 reagents to the captured anti-MSR1 monoclonal antibody was measured for 4 minutes and the dissociation of monoclonal antibody bound MSR1 reagent was monitored for 8-10 minutes in HBS-EBT buffer.
(§2) The association rate (ka) and dissociation rate (kd) were determined by fitting the real-time binding sensorgrams to a 1:1 binding model with mass transport limitation using Scrubber 2.0c curve-fitting software. Binding dissociation equilibrium constant (KD) and dissociative half-life (t½) were calculated from the kinetic rates as: […]
(§3) Binding kinetics parameters for His9-hMSR1, HMM-mfMSR1 or His9-mMSR1 binding to different anti-MSR1 monoclonal antibodies of the invention at 25° C. are shown in Tables 8 and 9.

In experiment [2] the test system is HMM-mfMSR1 (monkey MSR1 extracellular domain). The description is as above. Conditions: 25° C., analyte HMM-mfMSR1, NB = no binding observed. On the procedure:
as §1, §2, §3

Experiment [3] has as its target T2, PMA-treated THP-1 cells (endogenously expressed human MSR1) (Homo sapiens, UniProt P21757).
T2 construct: endogenous in cells; host or cells: THP-1 cells differentiated with PMA
T2 sequence (P21757 1-451): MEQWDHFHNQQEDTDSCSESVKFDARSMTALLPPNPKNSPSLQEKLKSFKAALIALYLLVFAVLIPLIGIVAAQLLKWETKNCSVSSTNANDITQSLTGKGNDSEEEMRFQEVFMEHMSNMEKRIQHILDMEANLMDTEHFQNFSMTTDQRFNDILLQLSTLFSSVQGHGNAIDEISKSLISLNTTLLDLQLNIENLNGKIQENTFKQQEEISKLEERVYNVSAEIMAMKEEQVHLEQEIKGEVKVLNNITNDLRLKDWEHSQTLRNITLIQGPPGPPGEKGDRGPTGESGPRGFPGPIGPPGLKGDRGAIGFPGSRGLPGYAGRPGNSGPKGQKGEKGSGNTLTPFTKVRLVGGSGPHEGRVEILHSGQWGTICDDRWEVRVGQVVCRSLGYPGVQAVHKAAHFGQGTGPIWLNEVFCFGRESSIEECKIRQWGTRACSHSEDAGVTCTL
Nature of the experiment: Electrochemiluminescence antibody binding assay on MSR1-expressing cells. Format: cell-based.

Another experiment has as its system parental HEK293 cells. Nature of the experiment: Electrochemiluminescence antibody binding assay, non-specific binding control cells. The experiment is classed as cell-based, human.
The target in experiment [4] is T3, MSR1-mediated Dil-AcLDL uptake in HEK293.Myc.hMSR1 cells (Homo sapiens, UniProt P21757).
T3 construct: expressed in transfected cells; host or cells: HEK293 (lentiviral transduction, hygromycin selection)
T3 sequence (P21757 1-451): T2 sequence (P21757 1-451)
Kind of experiment: Ligand uptake assay, Dil-AcLDL. Format: cell-based. Conditions: 10 μg/mL Dil-AcLDL. On the procedure:
A bioassay was generated to assess the ability of the exemplary anti-MSR1 antibodies to regulate the uptake of certain MSR1 ligands.
Generation of MSR1-expressing cell lines for assay. […] The resulting cell line, referred to here as “HEK293.Myc.hMSR1”, was selected and maintained in DMEM containing 10% FIBS, NEAA, penicillin/streptomycin, L-glutamine, and 100 μg/mL hygromycin.
Ligand uptake assay. […] After 30 minutes, either oxidized or acetylated low-density lipoprotein (LDL) labeled with 1,1′dioctadecyl-3,3,3′,3′-tetramethylindocarbocyanine perchlorate (referred to as “Dil-OxLDL” or “Dil-AcLDL,” respectively) was added to the cells at a constant concentration of 10 μg/mL. […] Results were analyzed using nonlinear regression (4-parameter logistics) with the Prism 7 program to obtain EC50 and IC50 values. The percentage of inhibition was calculated with the Relative Fluorescent Unit (RFU) values by using the following equation: […]
In the equation, “RFUBaseline” is the fluorescence value from the cells treated with 10 μg/mL ligand without antibodies, “RFUInhibition” is the minimum fluorescence value with for a particular antibody with 10 μg/mL ligand, and “RFUBackground” is the fluorescence value from cells without any ligand or antibodies.

Chain of HMM-mfMSR1 (monkey MSR1 extracellular domain) (as listed by the source): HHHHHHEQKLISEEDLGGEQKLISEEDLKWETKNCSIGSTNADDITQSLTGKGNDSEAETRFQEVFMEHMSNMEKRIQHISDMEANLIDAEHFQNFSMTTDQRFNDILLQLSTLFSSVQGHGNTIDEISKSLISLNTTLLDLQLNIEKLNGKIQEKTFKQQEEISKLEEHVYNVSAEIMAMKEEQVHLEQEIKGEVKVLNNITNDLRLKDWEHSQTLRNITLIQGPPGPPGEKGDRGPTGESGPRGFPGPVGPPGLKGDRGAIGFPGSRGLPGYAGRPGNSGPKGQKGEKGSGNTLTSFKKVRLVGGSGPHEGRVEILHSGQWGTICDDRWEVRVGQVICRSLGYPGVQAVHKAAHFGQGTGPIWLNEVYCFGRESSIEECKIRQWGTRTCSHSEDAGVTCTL

B1: H2aM21229N: one of "Twelve anti-MSR1 antibodies"; "an “H2aM” antibody has a mouse IgG2a Fc" (antibody, V domains shown)
VH: EVQLVESGGGLVKPGGSLRLSCAASGFTFSRYSMNWVRQAPGKGLEWVSSISSSSSYIYYGDTVKGRFTISRDNAKKSLYLQMNSLRAEDTAVYYCVRDRGQLVLYFDYWGQGTLVTVSS
VL: DIQMTQSPASLSTSIRDRVTITCRASLSISSFLNWFQQRPGKAPKLLIYVASNLQSGVPSRFSDSGSGTDFTLTISSLQPEDFATYYCQQNYSTPPITFGQGTRLEIK
In experiment [1], B1 yielded a ka of 300000 M⁻¹ s⁻¹ and a kd of 0.00021 s⁻¹. In experiment [2], this molecule returned a ka of 135000 M⁻¹ s⁻¹ and a kd of 0.00222 s⁻¹. In experiment [3], the “Ratio of 11 nM Antibody Binding Signal (RLU) to isotype control, PMA-treated THP-1” value stood at 56. Further, the “Ratio of 11 nM Antibody Binding Signal (RLU) to isotype control, HEK293” value in the experiment on parental HEK293 cells was determined as 36. Further, in experiment [4], the “Dil-Acetylated LDL IC50” value is “no inhibition” and the “maximum inhibition of Dil-AcLDL uptake” value is listed as “no inhibition”. Moreover, the “Dil-Acetylated LDL % Inhibition” value in experiment [4] (maximum inhibition) was “no inhibition”.

B2: H2aM25695N: one of "Twelve anti-MSR1 antibodies"; "an “H2aM” antibody has a mouse IgG2a Fc" (antibody, V domains shown)
VH: QVQLQESGPGLVKPSETLSLTCTVTGGSISRNYWSWIRQPPGKGLEWIGYIYYSGSINYNPSLKSRVTISVDMSKNQFSLKLNSVTAADTAVYYCARDRWNWKYGMDVWGQGTTVIVSS
VL: EIVLTQSPGTLSLSPGERATLSCRASQTVRNSYLAWYHQKPGQAPRLLIYGASSRATGIPDRFSGSGSGTDFTLTISRLEPEDFAVYYCQQYGSSYWTFGQGTKMEIKR
Turning to B2, in experiment [1], the ka was determined as 360000 M⁻¹ s⁻¹ and the kd is 0.000527 s⁻¹. In experiment [2], the ka stood at 312000 M⁻¹ s⁻¹ and the kd was 0.000571 s⁻¹. In experiment [3], the “Ratio of 11 nM Antibody Binding Signal (RLU) to isotype control, PMA-treated THP-1” value was found to be 8. Besides, the “Ratio of 11 nM Antibody Binding Signal (RLU) to isotype control, HEK293” value with parental HEK293 cells worked out at 5.
